For one substance, percent of total cellular E-cadherin found in the cortactin immunoprecipitates results are on record in article PMC2172285.

This assay addresses cortactin, endogenous in hE-CHO cells (hamster (endogenous in CHO)). Kind of assay: co-IP.

For “human E-cadherin stably expressed in CHO cells (hE-CHO cells) (from UniProt P12830 155-882) (receptor)”, the percent of total cellular E-cadherin found in the cortactin immunoprecipitates fell in the range of 1 to 2%.
